{
  "source": "patent US20110229491A1",
  "about": "(published 2011)",
  "binders": {"B1": {"name": "ETG1:YFPN fusion protein (other, UniProt Q501D5 1-589, looked up)", "chain": "MGGPAYDCLTNPLGAVRFSFVNALSSGYDPASSVGKDWGVVDLFRHYFSDESAISQVPILDSSSIKWVQPKTLVRFRGMIQDMLGNEFYAGAYKDDSTWRTNKYSDVSQFPEGSSTEIQVWERRLLYCVPVPGKNQWTECSSQELKNRFLDLTGQNREKRVRVDEEMTDSMDSSTLEAGRNGSPFKKMKVGEATSSASESQVPQTSGIPPATSADSLPCLVKIYDSPESDLKLNDVVEFLGVLTFDPIVMMDTDTLDENSDALSEAESVQMPSGKVPRLHCLIHRKLETQHFLHGSSLLPEPKSPQIFKEIRESLMKYLTGLLGNDHIAAQFLLLHLLSKVHGRVDNVAVGKLSLNLIHLNKESMSIFGTQLSGALKSLLPFTQSIPLTIEYLNTASFGPKKDYGINRLMPGVLQIADGTHLILDETELQPGTLNSVGVENANLLKNLLECQKVEYDFQYYKMEMATDVQMLIFSEGKSNIMPADLVLPLQPSQVNSLEVITPETAETWRCYLATCKSLSHSIGQELQQVVENDLVAARQTDRSLGSQDLSRLLTMARMMSVSYGETTLSLEHWQMVLELERLRKERLK", "notes": "range 1-589;range 1-154; BiFC construct expressed in tobacco leaf epidermal cells; not shown: YFPN: fragment with amino acid residues 1-154 of YFP (plasmid pUC-SPYNE)"}},
  "biological_target": "T1, MCM5:YFPC fusion protein (Arabidopsis, UniProt O80786 1-727)",
  "T1 construct": "BiFC construct expressed in tobacco leaf epidermal cells; not shown: YFPC: fragment with amino acid residues 155-238 of YFP (plasmid pUC-SPYCE)",
  "T1 sequence (looked up)": "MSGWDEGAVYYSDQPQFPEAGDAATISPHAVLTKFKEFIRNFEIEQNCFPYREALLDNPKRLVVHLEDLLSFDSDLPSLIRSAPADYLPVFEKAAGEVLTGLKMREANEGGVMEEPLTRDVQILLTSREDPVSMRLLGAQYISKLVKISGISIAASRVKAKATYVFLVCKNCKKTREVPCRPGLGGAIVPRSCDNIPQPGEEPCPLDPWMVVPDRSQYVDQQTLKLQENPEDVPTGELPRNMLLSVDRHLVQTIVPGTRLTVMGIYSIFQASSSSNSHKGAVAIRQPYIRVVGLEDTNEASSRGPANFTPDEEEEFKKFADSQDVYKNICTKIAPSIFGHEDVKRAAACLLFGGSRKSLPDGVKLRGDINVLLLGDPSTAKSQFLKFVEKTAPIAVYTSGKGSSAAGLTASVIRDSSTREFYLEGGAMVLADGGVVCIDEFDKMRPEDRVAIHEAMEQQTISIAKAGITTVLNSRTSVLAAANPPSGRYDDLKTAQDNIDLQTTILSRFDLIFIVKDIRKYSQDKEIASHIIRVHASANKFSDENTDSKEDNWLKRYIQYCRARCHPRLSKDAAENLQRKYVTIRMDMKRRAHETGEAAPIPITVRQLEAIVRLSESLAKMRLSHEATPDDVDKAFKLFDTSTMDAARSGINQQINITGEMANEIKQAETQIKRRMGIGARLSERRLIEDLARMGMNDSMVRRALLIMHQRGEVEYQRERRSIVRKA",
  "test": "BiFC in tobacco leaf epidermal cells",
  "method": "Full-length open reading frames of ETG1 and MCM5 were transferred into the pH7FWG2 destination vector (Karimi et al., 2002) by LR recombination reaction, resulting in ETG1:EGFP and MCM5:EYFP fusion proteins, respectively. BiFC assay was performed as described by Walter et al. (2004). The coding region of ETG1 was amplified with 5′-[…]-3′ (SEQ ID NO:28) and 5′-[…]-3′ (SEQ ID NO:29) primers, and cloned via BamHI-XhoI into the plasmid pUC-SPYNE (Walter et al., 2004), resulting in the plasmid expressed as the ETG1:YFPN fusion protein; the coding region of MCM5 was also obtained with 5′-[…]-3′ (SEQ ID NO:30) and 5′-[…]-3′ (SEQ ID NO:31) primers, and cloned via SpeI-SalI into the plasmid pUC-SPYCE (Walter et al., 2004) to give rise to the plasmid expressed as the MCM5:YFPC fusion protein.\nThe Agrobacterium strains containing both BiFC constructs were co-infiltrated into tobacco leaves. Epidermal cell layer of tobacco leaves were assayed for fluorescence using confocal laser scanning microscope (Zeiss) two to four days after infiltration. […] As expected, no fluorescence was detected when any combination with empty vectors was introduced into tobacco cells (FIG. 5, Panel C; ETG1-YFPN and YFPC, YFPN and MCM5-YFPC).",
  "data": [
    {"binder": "B1", "values": [
      {"measurement": "binding result", "value": "binds"}
    ]}
  ]
}
